# B1: FCHSD1 (parent)
# chain: LEAAEVILEHAHRGEQTTSQVSWE
# Variants of: B1
# Test: protein stability index of a GFP-peptide fusion (GPS, HEK-293T) (PSI 1-6); higher = more stable
# Conditions: c terminus: a fixed tail appended
# 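Further: lentivirally expressed fusions sorted by FACS into six bins by GFP to DsRed ratio, PSI derived from sequencing read proportions per bin multiplied by bin number.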
row,Variant,protein stability index
1,LEAANVILEHAHRGEQTTSQVSWE [E5N],3.63
2,LEAASVILEHAHRGEQTTSQVSWE [E5S],4.1
3,LEAAHVILEHAHRGEQTTSQVSWE [E5H],3.6
4,LEAAMVILEHAHRGEQTTSQVSWE [E5M],2.4
5,LEAAWVILEHAHRGEQTTSQVSWE [E5W],1.53
6,LEAAKVILEHAHRGEQTTSQVSWE [E5K],3.48
7,LEAALVILEHAHRGEQTTSQVSWE [E5L],1.11
8,LEAAFVILEHAHRGEQTTSQVSWE [E5F],2.29
9,LEAAYVILEHAHRGEQTTSQVSWE [E5Y],2.01
10,LEAAIVILEHAHRGEQTTSQVSWE [E5I],2.18
11,LEAADVILEHAHRGEQTTSQVSWE [E5D],4.31
12,LEAAQVILEHAHRGEQTTSQVSWE [E5Q],4.2
13,LEAATVILEHAHRGEQTTSQVSWE [E5T],4.38
14,LEAARVILEHAHRGEQTTSQVSWE [E5R],4.22
15,LEAAVVILEHAHRGEQTTSQVSWE [E5V],2.83
16,LEAAEVILEHAHRGDQTTSQVSWE [E15D],4.22
17,LEAAEVILEHAHRGFQTTSQVSWE [E15F],2.31
18,LEAAEVILEHAHRGLQTTSQVSWE [E15L],2.81
19,LEAAEVILEHAHRGHQTTSQVSWE [E15H],3.87
20,LEAAEVILEHAHRGWQTTSQVSWE [E15W],2.2
21,LEAAEVILEHAHRGNQTTSQVSWE [E15N],4.7
22,LEAAEVILEHAHRGKQTTSQVSWE [E15K],3.46
23,LEAAEVILEHAHRGIQTTSQVSWE [E15I],3.31
24,LEAAEVILEHAHRGVQTTSQVSWE [E15V],2.6

row,Variant,protein stability index
1,LEAAEVILEHAHRGAQTTSQVSWE [E15A],3.79
2,LEAAEVILEHAHRGQQTTSQVSWE [E15Q],3.5
3,LEAAEVILEHAHRGRQTTSQVSWE [E15R],3.87
4,LEAAEVILEHAHRGEMTTSQVSWE [Q16M],3.57
5,LEAAEVILEHAHRGEDTTSQVSWE [Q16D],4.9
6,LEAAEVILEHAHRGEETTSQVSWE [Q16E],4.88
7,LEAAEVILEHAHRGEPTTSQVSWE [Q16P],4.05
8,LEAAEVILEHAHRGEGTTSQVSWE [Q16G],4.42
9,LEAAEVILEHAHRGEATTSQVSWE [Q16A],4.41
10,LEAAEVILEHAHRGECTTSQVSWE [Q16C],2.73
11,LEAAEVILEHAHRGERTTSQVSWE [Q16R],4.14
12,LEAAEVILEHAHRGEFTTSQVSWE [Q16F],3.53
13,LEAAEVILEHAHRGEHTTSQVSWE [Q16H],4.05
14,LEAAEVILEHAHRGEITTSQVSWE [Q16I],3.98
15,LEAAEVILEHAHRGELTTSQVSWE [Q16L],2.92
16,LEAAEVILEHAHRGEKTTSQVSWE [Q16K],4.24
17,LEAAEVILEHAHRGENTTSQVSWE [Q16N],3.97
18,LEAAEVILEHAHRSEQTTSQVSWE [G14S],4.46
19,LEAAEVILEHAHREEQTTSQVSWE [G14E],4.53
20,LEAAEVILEHAHRFEQTTSQVSWE [G14F],2.88
21,LEAAEVILEHAHRYEQTTSQVSWE [G14Y],3.64
22,LEAAEVILEHAHRCEQTTSQVSWE [G14C],4.2
23,LEAAEVILEHAHRPEQTTSQVSWE [G14P],4.29
24,LEAAEVILEHAHRVEQTTSQVSWE [G14V],3.47

row,Variant,protein stability index
1,LEAAEVILEHAHRTEQTTSQVSWE [G14T],4.21
2,LEAAEVILEHAHRMEQTTSQVSWE [G14M],3.45
3,LEAAEVILEHAHRNEQTTSQVSWE [G14N],4.53
4,LEAAEVILEHAHRREQTTSQVSWE [G14R],4.19
5,LEAAEVILEHAHRLEQTTSQVSWE [G14L],3.76
6,LEAAEVILEHAHRDEQTTSQVSWE [G14D],4.68
7,LEAAEVILEHAHRQEQTTSQVSWE [G14Q],4.63
8,LEAAEVILEHAHRIEQTTSQVSWE [G14I],3.85
9,LEAAEVILEHAHRHEQTTSQVSWE [G14H],4.28
10,LEAAEVILEHAHRAEQTTSQVSWE [G14A],4.55
11,LEAAEVSLEHAHRGEQTTSQVSWE [I7S],4.92
12,LEAAEVLLEHAHRGEQTTSQVSWE [I7L],4.99
13,LEAAEVCLEHAHRGEQTTSQVSWE [I7C],4.28
14,LEAAEVNLEHAHRGEQTTSQVSWE [I7N],5.08
15,LEAAEVALEHAHRGEQTTSQVSWE [I7A],4.71
16,LEAAEVVLEHAHRGEQTTSQVSWE [I7V],4.75
17,LEAAEVGLEHAHRGEQTTSQVSWE [I7G],5.1
18,LEAAEVELEHAHRGEQTTSQVSWE [I7E],4.64
19,LEAAEVHLEHAHRGEQTTSQVSWE [I7H],5.15
20,LEAAEVYLEHAHRGEQTTSQVSWE [I7Y],4.7
21,LEAAEVDLEHAHRGEQTTSQVSWE [I7D],5.62
22,LEAAEVRLEHAHRGEQTTSQVSWE [I7R],5.16
23,LEAAEVFLEHAHRGEQTTSQVSWE [I7F],4.27
24,LEAAEVWLEHAHRGEQTTSQVSWE [I7W],4.24

row,Variant,protein stability index
1,LEAAEVMLEHAHRGEQTTSQVSWE [I7M],4.84
2,LEAAEVPLEHAHRGEQTTSQVSWE [I7P],4.89
3,LEAAEVQLEHAHRGEQTTSQVSWE [I7Q],4.55
4,LEAAEEILEHAHRGEQTTSQVSWE [V6E],5.31
5,LEAAEMILEHAHRGEQTTSQVSWE [V6M],3.85
6,LEAAELILEHAHRGEQTTSQVSWE [V6L],3.95
7,LEAAEGILEHAHRGEQTTSQVSWE [V6G],5.35
8,LEAAEDILEHAHRGEQTTSQVSWE [V6D],5.52
9,LEAAENILEHAHRGEQTTSQVSWE [V6N],5.66
10,LEAAESILEHAHRGEQTTSQVSWE [V6S],4.24
11,LEAAEPILEHAHRGEQTTSQVSWE [V6P],5.66
12,LEAAEYILEHAHRGEQTTSQVSWE [V6Y],4.17
13,LEAAEQILEHAHRGEQTTSQVSWE [V6Q],5.27
14,LEAAEAILEHAHRGEQTTSQVSWE [V6A],4.9
15,LEAAEIILEHAHRGEQTTSQVSWE [V6I],4.03
16,LEAAEHILEHAHRGEQTTSQVSWE [V6H],4.7
17,LEAAEKILEHAHRGEQTTSQVSWE [V6K],4.16
18,LEAAERILEHAHRGEQTTSQVSWE [V6R],4.48
19,LEAAEFILEHAHRGEQTTSQVSWE [V6F],3.56
20,LEAAEVILEHAIRGEQTTSQVSWE [H12I],4.25
21,LEAAEVILEHATRGEQTTSQVSWE [H12T],4.11
22,LEAAEVILEHASRGEQTTSQVSWE [H12S],4.77

# Reference: the supplement of paper PMC10567573
